Measurements taken from publication PMC8544208 (Antibodies, 2021).

Biological target: T1, C5b6 with bound C7 and C8, assembled on the SPR chip (human | , UniProt P01031 19-673; P01031 752-1676; P13671 22-934; P10643 23-843; P07357 31-584; …)
T1 construct: complement C5 beta chain, as part of C5b; complement C5 alpha' chain of C5b; complement component C6; complement component C7; complement component C8 alpha chain; complement component C8 beta chain; complement component C8 gamma chain; Formed by injecting C7 (4 nM) and then C8 (8 nM) over C5b6 captured on the anti-C5 tool antibody; source: assembled on the SPR chip from bought C5b6, C7 and C8 …
Assay: SPR; MAC assembly assay, Biacore 8K, HBS-EP+; anti-C5 antibody amine coupled to a CM5 chip, C5 or C5b6 captured at 4 nM; C7, C8 and C9 flowed over in succession at 4, 8 and 50 nM, also with single components left out
Conditions: both partners purified

binding result: binds
B1: Complement C9 (natural protein)
chain: not shown
notes: complement component C9; Unlabelled C9 as used in SPR; source: bought: Complement Technology (Comptech)
